Data published in patent US11242370B2, “Neuregulin-4 compounds and methods of use” (Eli Lilly and Company, priority 2019, dated 2022).

Biological target: T1, human HER2 and HER4 (Homo sapiens, UniProt Q15303)
T1 construct: expressed in transfected cells
Test: Screening by human HER2-HER4 mediated ERK 1/2 phosphorylation in CHO-hHER2-hHER4 (clone 1H6) cells
Format: cell-based
Details: Fc variants as 293F supernatants
Experimental: A cell based assay utilizing CHO-K1 cells overexpressing human or rat HER receptors is used to determine activity of NRG4 compounds. CHO-K1 cells (ATCC) are grown in DMEM-F12 3:1 with 5% FBS with 20 mM HEPES, 40 μg/mL L-Proline, lx antibiotics and were split 1:5 every 2-3 days with TripLE Express (Gibco). Cells are transfected with plasmid DNA encoding HER receptors in pairs (hHER2-3, hHER2-4, rHER2-3 and rHER2-4) with Fugene 6 (Promega) according to the manufacturer's instructions. […] Transfected cells are selected with Puromycin (12 ug/ml) and Hygromycin (1 mg/ml) for 3-4 weeks and clonal lines are obtained by limited dilution cloning into 96 well plates. Clonal lines are selected by appropriate gene expression of HER2, HER3 or HER4 by Taqman method. Lines with appropriate receptor expression are confirmed by NRG1 induced phospho-ERK 1/2 responses. Clones are grown up, harvested, aliquoted into cryovials and then frozen under liquid nitrogen for long-term storage.
A phospho-ERK1/2 activity assay is used to determine potencies of NRG4 compounds. The potency of Examples 1-8 and 10 as compared to WT human NRG1 and/or human NRG4 are analyzed in studies measuring stimulation of human HER2-HER4 mediated ERK 1/2 phosphorylation. This assay comprises a CHO-K1 stable line expressing human HER2 and HER4. CHO-hHER2-hHER4 (clone 1H6) cells are routinely cultured in DMEM: F12(3:1), 5% FBS, 40 μg/mL L-Proline, 10 μg/mL puromycin and 1 mg/mL hygromycin at 37° C., 5% CO2. Cells are washed twice with 1×PBS, dissociated with 0.05% trypsin/[…] EDTA and collected by centrifugation at 300×g for 10 m. Cells are re-suspended in maintenance media. 20,000 cells/well, in 30 μL, are seeded into 384 well Poly-D-Lysine cell culture plates (Greiner, Cat No. 781946). Plates are covered with a manufacturer's lid and moved to a 37° C. tissue culture incubator at 5% CO^2, 80%+ humidity and allowed to adhere. After 24 h, media are removed from the plates and replaced with 30 μL serum-free starvation media (Low glucose DMEM with 0.1% BSA) using a Biomek FX liquid handler. Plates are returned to the incubator for 24 h.
hFcNRG4 variants, transiently expressed as 293F supernatants, are prepared in starvation media in a clear 384W plate (Greiner, cat no. 781185) as a 4pt 1:8 serial dilution (dose range averaged between 250 pM to 140000 pM). Media are removed from the cell culture plates and the 30 uL/well prepared variants are stamped into the plates using a Biomek FX liquid handler. Plates are sealed with a foil seal and stimulated for 15 minutes at room temperature on an orbital shaker. Cells are then washed once with 50 uL cold PBS. 30 uL lysis buffer is added to the cells and oscillated for 10 m at RT on an orbital shaker.
Detection of phosphorylation of ERR 1/2 is performed with either an AlphaScreen SureFire phospho-ERK1/2 kit (T202/Y204) (Perkin Elmer, catalog no. TGRES) or an AlphaLISA® SureFire® Ultra™ p ERK1/2 assay kit together with the AlphaScreen Protein. A IgG Detection Kit (Protein-A) (PerkinElmer, catalogue no. 6760617). After lysis of the CHO-K1 cells. 4 μL lysate is transferred to a 384W Alpha Proxiplate (Perkin Elmer, cat no, 6008280) with a 384W Biomek FX. 4 uL positive and negative lysates (Perkin Elmer, TGRES-L) are added to available wells as controls. 5 uL/well acceptor mix (containing anti-phoso-Thr202/Tyr204 antibodies and Protein A conjugated acceptor beads) is added to the plate with a Forumlatrix Mantis. The plate is sealed, spun down for 1 min at 300×g and incubated for 2 hr at room temperature on an orbital shaker. 2 μL/well donor mix (containing strepavidin coated donor beads and biotinylated antibodies to a distal ERK1/2 epitope) is dispensed by Mantis. The plate is sealed, spun down for 1 min at 300×g and incubated for 2 hr at room temperature on an orbital shaker before reading on the Perkin Elmer Envision 2103 Multilabel Reader (HIS Alpha mode, excitation time: 40 ms, total measurement time: 130 ms). […]

EC50 (Table 6) | EC50 (Table 5, Examples average of two replicates ± standard deviation) | Molecule
0.319 nM |  | WT NRG1: wild type human NRG1; native peptide purchased from Reprokine in Tables 7-9; comparator in the screening assays of Tables 4 and 6
1.3 nM | 2.53 nM | WT NRG4: wild type human NRG4 (SEQ ID NO:1); parental hFcNRG4 in screening (Tables 4-6), native peptide from Reprokine in Tables 7-9 (DHEEPCGPSHKSFCLNGGLCYVIPTIPSPFCRCVENYTGARCEEVFL; listed as Homo sapiens)

Molecule | EC50 (Table 6) | EC50 (Table 5, Examples average of two replicates ± standard deviation)
Example 10: NRG4 D1G/V22Q/E44K, (GGGGS)3 linker, SEQ ID NO: 19, fused to IgG Fc dimer SEQ ID NO: 6 and 7 (protein) chain 1: GGGGSGGGGSGGGGSGHEEPCGPSHKSFCLNGGLCYQIPTIPSPFCRCVENYTGARCEKVFL chain 2: ECPPCPAPPVAGPSVFLFPPKPKDTLMISRTPEVTCVVVDVSHEDPEVQFNWYVDGVEVHNAKTKPREEQFNSTFRVVSVLTVVHQDWLNGKEYKCKVSNKGLPAPIEKTISKTKGQPREPQVYTLPPSREEMTKNQVSLWCLVKGFYPSDIAVEWESNGQPENNYKTTPPVLDSDGSFFLYSKLTVDKSRWQQGNVFSCSVMHEALHNHYTQKSLSLSPG chain 3: ECPPCPAPPVAGPSVFLFPPKPKDTLMISRTPEVTCVVVDVSHEDPEVQFNWYVDGVEVHNAKTKPREEQFNSTFRVVSVLTVVHQDWLNGKEYKCKVSNKGLPAPIEKTISKTKGQPREPQVYTLPPSREEMTKNQVSLSCAVKGFYPSDIAVEWESNGQPENNYKTTPPVLDSDGSFFLVSKLTVDKSRWQQGNVFSCSVMHEALHNHYTQKSLSLSPG | 0.245 nM | 
